What all share (conditions): protein: recombinant; tags: MBP fusion; label: 3' biotin; blunt
Data set [1] addresses T1, MBP-SNZ (Arabidopsis thaliana, UniProt Q6PV67 1-325). The experiment in a line: EMSA; poly(dI-dC), 5 mM MgCl2; unlabeled probe (50x, 250x) inhibited binding; LightShift EMSA binding buffer, 50 ng poly(dI-dC), 2.5% glycerol, 0.06% NP-40, 5 mM MgCl2, 19 mg BSA (so in the source), 28 ug protein, 5 pmol probe, 30 min room temperature; pH and salt not given.
For data set [2], the target named is T1, MBP-SNZ. As to the kind of experiment: EMSA; poly(dI-dC), 5 mM MgCl2; unlabeled RAV1-A probe reduced binding; LightShift EMSA binding buffer, 50 ng poly(dI-dC), 2.5% glycerol, 0.06% NP-40, 5 mM MgCl2, 19 mg BSA (so in the source), 28 ug protein, 5 pmol probe, 30 min room temperature; pH and salt not given.
In data set [3] the target is T1, MBP-SNZ. As to the kind of experiment: EMSA; poly(dI-dC), 5 mM MgCl2; LightShift EMSA binding buffer, 50 ng poly(dI-dC), 2.5% glycerol, 0.06% NP-40, 5 mM MgCl2, 19 mg BSA (so in the source), 28 ug protein, 5 pmol probe, 30 min room temperature; pH and salt not given.

T1 sequence (Q6PV67 whole entry): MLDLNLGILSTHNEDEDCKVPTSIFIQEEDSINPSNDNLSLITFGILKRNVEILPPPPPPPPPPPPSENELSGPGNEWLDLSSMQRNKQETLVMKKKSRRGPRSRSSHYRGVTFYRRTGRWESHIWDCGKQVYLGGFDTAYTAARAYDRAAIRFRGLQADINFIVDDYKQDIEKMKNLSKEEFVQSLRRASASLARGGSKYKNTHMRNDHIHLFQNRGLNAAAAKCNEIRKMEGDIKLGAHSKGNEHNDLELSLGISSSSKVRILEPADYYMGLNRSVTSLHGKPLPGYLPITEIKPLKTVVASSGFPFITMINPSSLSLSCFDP

B1: ABI5 probe (dsDNA)
DNA 1: TTAACAACTGCATCATATACACAACAATAAC
DNA 2: GTTATTGTTGTGTATATGATGCAGTTGTTAA
Take B1: the binding result with MBP-SNZ [1] is recorded as “binds”.

B2: wRAV1-A probe (dsDNA)
DNA 1: CACCTGCAACACAACACAACACAACACAACACAACACACCTG
DNA 2: CAGGTGTGTTGTGTTGTGTTGTGTTGTGTTGTGTTGCAGGTG
B2: the binding result with MBP-SNZ [2] is “binds”.

B3: mRAV1-A probe (dsDNA)
DNA 1: CACCTGCGGTACGGTACGGTACGGTACGGTACGGTACACCTG
DNA 2: CAGGTGTACCGTACCGTACCGTACCGTACCGTACCGCAGGTG
In the case of B3, the binding result with MBP-SNZ [3] is on record as “no binding”.
